Tested on: SK-N-MC neuroblastoma cells
Test: SK-N-MC neuroblastoma xenograft tumor growth in mice (04 IGFR-13, 19D12 vs. Cisplatin)
Format: in vivo, Athymic nude mice

B1: 19D12: anti-IGF1R antibody: light chain variable region amino acids 20-128 of SEQ ID NO: 8, heavy chain variable region amino acids 20-137 of SEQ ID NO: 10 (antibody, V domains shown)
VL: MSPSQLIGFLLLWVPASRGEIVLTQSPGTLSVSPGERATLSCRASQSIGSSLHWYQQKPGQAPRLLIKYASQSLSGIPDRFSGSGSGTDFTLTISRLEPEDFAVYYCHQSSRLPHTFGQGTKVEIKRT
VH: MEFGLSWVFLVAILKGVQCEVQLVQSGGGLVKPGGSLRLSCAASGFTFSSFAMHWVRQAPGKGLEWISVIDTRGATYYADSVKGRFTISRDNAKNSLYLQMNSLRAEDTAVYYCARLGNFYYGMDVWGQGTTVTVSS
modifications: variable regions only: LC 20-128, HC 20-137; constant regions lack entries
- Tumor Average Size (0.004 mg 19D12, Day 0): 89 mm^3
- Tumor Average Size (0.004 mg 19D12, Day 2): 120 mm^3
- Tumor Average Size (0.004 mg 19D12, Day 6): 146 mm^3
- Tumor Average Size (0.004 mg 19D12, Day 9): 177 mm^3
- Tumor Average Size (0.004 mg 19D12, Day 13): 212 mm^3
- Tumor Average Size (0.004 mg 19D12, Day 16): 235 mm^3
- Tumor Average Size (0.004 mg 19D12, Day 20): 292 mm^3
- Tumor Average Size (0.004 mg 19D12, Day 23): 331 mm^3
- Tumor Average Size (0.004 mg 19D12, Day 24): 331 mm^3
- Tumor Average Size (0.02 mg 19D12, Day 0): 97 mm^3
- Tumor Average Size (0.02 mg 19D12, Day 2): 122 mm^3
- Tumor Average Size (0.02 mg 19D12, Day 6): 151 mm^3
- Tumor Average Size (0.02 mg 19D12, Day 9): 189 mm^3
- Tumor Average Size (0.02 mg 19D12, Day 13): 222 mm^3
- Tumor Average Size (0.02 mg 19D12, Day 16): 248 mm^3
- Tumor Average Size (0.02 mg 19D12, Day 20): 292 mm^3
- Tumor Average Size (0.02 mg 19D12, Day 23): 344 mm^3
- Tumor Average Size (0.02 mg 19D12, Day 24): 344 mm^3
- Tumor Average Size (0.1 mg 19D12, Day 0): 89 mm^3
- Tumor Average Size (0.1 mg 19D12, Day 2): 115 mm^3
- Tumor Average Size (0.1 mg 19D12, Day 6): 144 mm^3
- Tumor Average Size (0.1 mg 19D12, Day 9): 193 mm^3
- Tumor Average Size (0.1 mg 19D12, Day 13): 226 mm^3
- Tumor Average Size (0.1 mg 19D12, Day 16): 245 mm^3
- Tumor Average Size (0.1 mg 19D12, Day 20): 282 mm^3
- Tumor Average Size (0.1 mg 19D12, Day 23): 335 mm^3
- Tumor Average Size (0.1 mg 19D12, Day 24): 335 mm^3
- Tumor Average Size (0.5 mg 19D12, Day 0): 83 mm^3
- Tumor Average Size (0.5 mg 19D12, Day 2): 107 mm^3
- Tumor Average Size (0.5 mg 19D12, Day 6): 133 mm^3
- Tumor Average Size (0.5 mg 19D12, Day 9): 173 mm^3
- Tumor Average Size (0.5 mg 19D12, Day 13): 210 mm^3
- Tumor Average Size (0.5 mg 19D12, Day 16): 234 mm^3
- Tumor Average Size (0.5 mg 19D12, Day 20): 264 mm^3
- Tumor Average Size (0.5 mg 19D12, Day 23): 317 mm^3
- Tumor Average Size (0.5 mg 19D12, Day 24): 317 mm^3

Source: patent US20150093398A1, “Methods and Compositions for Treating or Preventing Cancer” (MERCK SHARP & DOHME CORP., priority 2005, published 2015)
